# From patent US20190338048A1
# Several values for one entry are separate records, joined by “and”; a condition that tells them apart may be missing. Equal values may be shown once. Read-outs that look alike come from different tables or passages of the source.
# Assays:
# [1] = biological target: CR8071 lambda light chain (L1) with V133G_S176R, design 2188, System C; assay: SMCA, LC-MS
# [2] = biological target: CR8071 lambda light chain (L1) with V133G_S176R, design 2188, System C
# [3] = biological target: CR8071 lambda light chain (L1) with E124K_Y178R, design 2830, System C; assay: SMCA, LC-MS
# [4] = biological target: CR8071 lambda light chain (L1) with E124K_Y178R, design 2830, System C
# [5] = biological target: CR8071 lambda light chain (L1) with E124R, design 2826; assay: SMCA LC-MS, System C
# [6] = biological target: CR8071 lambda light chain (L1) with E124R, design 2826; assay: SMCA: co-expression
# [7] = biological target: CR8071 lambda light chain (L1) with S180E, designs 2816 and 2827; assay: SMCA LC-MS, System C
# [8] = biological target: CR8071 lambda light chain (L1) with S180E, designs 2816 and 2827; assay: SMCA: H1, L1, H2, L2 co-expressed in CHO-3E7
# [9] = biological target: CR8071 lambda light chain (L1) with S180E, designs 2816 and 2827; assay: SMCA: co-expression
# [10] = biological target: Pertuzumab light chain (kappa) V133G_S176D, HA-tagged; assay: LCCA
# [11] = biological target: Pertuzumab light chain (kappa) V133G_S176D, HA-tagged; assay: LCCA; remark: listed apart in the source
# [12] = biological target: CAT-2200 light chain (lambda) V133I_L135K, FLAG-tagged; assay: LCCA
# [13] = biological target: CAT-2200 light chain (lambda) V133I_L135R_Y178F, FLAG-tagged; assay: LCCA
# [14] = biological target: CAT-2200 light chain (lambda) Y178K, FLAG-tagged; assay: LCCA
# [15] = biological target: Pertuzumab light chain (kappa) V133G_S176D, HA-tagged; assay: LCCA; remark: listed apart in the source
# [16] = biological target: Pertuzumab light chain (kappa) S176D_T178E, HA-tagged; assay: LCCA
# [17] = biological target: Pertuzumab light chain (kappa) S176E_T178E, HA-tagged; assay: LCCA
# [18] = biological target: Pertuzumab light chain (kappa) S131D_V133G_T178F, HA-tagged; assay: LCCA
# [19] = biological target: Pertuzumab light chain (kappa) S176E_T178E, HA-tagged; assay: LCCA; remark: listed apart in the source
# [20] = biological target: Pertuzumab light chain (kappa) S131D_V133G_T178F, HA-tagged; assay: LCCA; remark: listed apart in the source
# [21] = biological target: Pertuzumab light chain (kappa) S131E_V133G_T178F, HA-tagged; assay: LCCA
# [22] = biological target: Pertuzumab light chain (kappa) S176E_T178E, HA-tagged; assay: LCCA; remark: listed apart in the source
# [23] = biological target: Pertuzumab light chain (kappa) V133I_S176D_T178E, HA-tagged; assay: LCCA
# [24] = biological target: Pertuzumab light chain (kappa) V133L_S176D_T178E, HA-tagged; assay: LCCA
# [25] = biological target: Pertuzumab light chain (kappa) V133L_S176D_T178E, HA-tagged; assay: LCCA; remark: listed apart in the source
# [26] = biological target: Pertuzumab light chain (kappa) V133L_S176D_T178E, HA-tagged; assay: LCCA; remark: listed apart in the source
# [27] = biological target: Pertuzumab light chain (kappa) V133L_S176D_T178E, HA-tagged; assay: LCCA; remark: listed apart in the source
# [28] = biological target: Pertuzumab light chain (kappa) V133L_S176D_T178E, HA-tagged; assay: LCCA; remark: listed apart in the source
# [29] = biological target: Pertuzumab light chain (kappa) V133I_S176D_T178E, HA-tagged; assay: LCCA; remark: listed apart in the source
# [30] = biological target: Pertuzumab light chain (kappa) V133I_S176E_T178E, HA-tagged; assay: LCCA
# [31] = biological target: Pertuzumab light chain (kappa) V133L_S176D_T178E, HA-tagged; assay: LCCA; remark: listed apart in the source
# [32] = biological target: SGN-CD19a kappa light chain (L2) with V133G_S176D, design 2188, Systems B and C; assay: SMCA, LC-MS
# [33] = biological target: SGN-CD19a kappa light chain (L2) with V133G_S176D, design 2188, Systems B and C
# [34] = biological target: SGN-CD19a kappa light chain (L2) with T178E_T180E, design 2830, System C; assay: SMCA, LC-MS
# [35] = biological target: SGN-CD19a kappa light chain (L2) with T178E_T180E, design 2830, System C
# [36] = biological target: SGN-CD19a kappa light chain (L2) with Q124R_Q160K_T178R, design 2816; assay: SMCA LC-MS, System C
# [37] = biological target: SGN-CD19a kappa light chain (L2) with Q124R_Q160K_T178R, design 2816; assay: SMCA: co-expression
# [38] = biological target: SGN-CD19a kappa light chain (L2) with Q124K_T178R, design 2827; assay: SMCA LC-MS, System B
# [39] = biological target: SGN-CD19a kappa light chain (L2) with Q124K_T178R, design 2827; assay: SMCA LC-MS, System C
# [40] = biological target: SGN-CD19a kappa light chain (L2) with Q124E_Q160E_T180E, design 2826; assay: SMCA LC-MS, System B
# [41] = biological target: SGN-CD19a kappa light chain (L2) with Q124E_Q160E_T180E, design 2826; assay: SMCA LC-MS, System C
# [42] = biological target: SGN-CD19a kappa light chain (L2) with Q124E_Q160E_T180E, design 2826; assay: SMCA: co-expression
# [43] = biological target: SGN-CD19a kappa light chain (L2) with T178E_T180E, design 2830; assay: SMCA LC-MS, System B
# [44] = biological target: SGN-CD19a kappa light chain (L2) with T178E_T180E, design 2830; assay: SMCA: co-expression
# [45] = biological target: SGN-CD19a kappa light chain L2, design 2830 (T178E_T180E); assay: SMCA, System B, LC-MS
# [46] = biological target: SGN-CD19a kappa light chain L2, design 2830 (T178E_T180E); assay: SMCA, System B
substance,measurement,setting,value
"CR8071 full-length IgG1 heavy chain (H1) with L124E, design 2188, System C",Change in % H1L1 Pairing with respect to wild type,[1],-23.5%
same,% H1L1 Pairing,[2],24.9%
"CR8071 full-length IgG1 heavy chain (H1) with L143E_K145T_Q179E, design 2830, System C",Change in % H1L1 Pairing with respect to wild type,[3],-20.4%
same,% H1L1 Pairing,[4],28%
"CR8071 heavy chain (H1, lambda arm) with L143E_K145T, design 2826, full-length IgG1 with heterodimeric Fc",Change in % H1L1 Pairing with respect to wild type,[5],-40.3%
same,% H1L1 Pairing,[6],27.8%
"CR8071 heavy chain (H1, lambda arm) with Q179K, design 2816, full-length IgG1 with heterodimeric Fc",Change in % H1L1 Pairing with respect to wild type,[7],17%
same,% H1L1 Pairing,[8],99.3%
"CR8071 heavy chain (H1, lambda arm) with S186R, design 2827, full-length IgG1 with heterodimeric Fc",Change in % H1L1 Pairing with respect to wild type,[7],15.9%
same,% H1L1 Pairing,[9],98.2%
Pertuzumab heavy chain Fab construct L124R,"H2L2:H2L1 normalized median ratio, H2L2 share",[10],84%
same,H2L2:H2L1 normalized median scalar value ln(r1/f1),[10],1.68
same,"H2L2:H2L1 normalized median ratio, H2L2 share",[11],83%
same,H2L2:H2L1 normalized median scalar value ln(r1/f1),[11],1.56
same,H2L2:H2L1 normalized median ratio (H2L1 share),[12],14%
same,H2L2:H2L1 normalized median ratio (H2L1 share),[13],17%
same,H2L2:H2L1 normalized median ratio (H2L1 share),[14],16%
same,"H2L2:H2L1 normalized median ratio, H2L2 share",[15],86%
same,H2L2:H2L1 normalized median scalar value ln(r1/f1),[15],1.8
Pertuzumab heavy chain Fab construct S188K,H2L2:H2L1 normalized median scalar value ln(r1/f1),[16],1.41
same,H2L2:H2L1 normalized median scalar value ln(r1/f1),[17],2.67
same,H2L2:H2L1 normalized median scalar value ln(r1/f1),[18],1.5
same,H2L2:H2L1 normalized median scalar value ln(r1/f1),[19],2.71
same,H2L2:H2L1 normalized median scalar value ln(r1/f1),[20],2.22
same,H2L2:H2L1 normalized median scalar value ln(r1/f1),[21],1.67
same,H2L2:H2L1 normalized median scalar value ln(r1/f1),[22],2.75
same,H2L2:H2L1 normalized median scalar value ln(r1/f1),[23],2.33
Pertuzumab heavy chain Fab construct V177I_S188K,H2L2:H2L1 normalized median scalar value ln(r1/f1),[24],0.55
same,H2L2:H2L1 normalized median scalar value ln(r1/f1),[25],1.64
same,H2L2:H2L1 normalized median scalar value ln(r1/f1),[26],1.83
same,H2L2:H2L1 normalized median scalar value ln(r1/f1),[27],2.15
same,H2L2:H2L1 normalized median scalar value ln(r1/f1),[28],2.3
same,H2L2:H2L1 normalized median scalar value ln(r1/f1),[29],2.58
same,H2L2:H2L1 normalized median scalar value ln(r1/f1),[30],2.63
same,H2L2:H2L1 normalized median scalar value ln(r1/f1),[31],2.38
"SGN-CD19a full-length IgG1 heavy chain (H2) with L124R, design 2188, Systems B and C",Change in % H2L2 Pairing with respect to wild type,[32],38.7% and 19.9%
same,% H2L2 Pairing,[33],92.9% and 99.5%
"SGN-CD19a full-length IgG1 heavy chain (H2) with S186R, design 2830, System C",Change in % H2L2 Pairing with respect to wild type,[34],20%
same,% H2L2 Pairing,[35],99.6%
"SGN-CD19a heavy chain (H2, kappa arm) with L143E_K145T, design 2816, full-length IgG1 with heterodimeric Fc",Change in % H2L2 Pairing with respect to wild type,[36],19.8%
same,% H2L2 Pairing,[37],79.7%
"SGN-CD19a heavy chain (H2, kappa arm) with L143E_K145T_Q179E, design 2827, full-length IgG1 with heterodimeric Fc",Change in % H2L2 Pairing with respect to wild type,[38],-15.3%
same,Change in % H2L2 Pairing with respect to wild type,[39],25.1%
"SGN-CD19a heavy chain (H2, kappa arm) with Q179K, design 2826, full-length IgG1 with heterodimeric Fc",Change in % H2L2 Pairing with respect to wild type,[40],35.5%
same,Change in % H2L2 Pairing with respect to wild type,[41],26.7%
same,% H2L2 Pairing,[42],89.7% and 98%
"SGN-CD19a heavy chain (H2, kappa arm) with S186R, design 2830, full-length IgG1 with heterodimeric Fc",Change in % H2L2 Pairing with respect to wild type,[43],44.3%
same,% H2L2 Pairing,[44],98.5%
"SGN-CD19a heavy chain H2, design 2830 (S186R)",Change in % H2L2 Pairing with respect to wild type,[45],44.3%
same,% H2L2 Pairing,[46],98.5%
